T1: GAL4 transactivating domain fusion of the FEBP1 (FE65 Binding PTB1 domain protein) fragment of 337 amino … (human, UniProt Q9UH62 44-379, limits assumed)
T1 construct: Two-hybrid prey isolated from a human brain cDNA library; a fragment of FEBP1, limits on the whole protein not known; also called fragment of the FEBP1 protein
T1 sequence: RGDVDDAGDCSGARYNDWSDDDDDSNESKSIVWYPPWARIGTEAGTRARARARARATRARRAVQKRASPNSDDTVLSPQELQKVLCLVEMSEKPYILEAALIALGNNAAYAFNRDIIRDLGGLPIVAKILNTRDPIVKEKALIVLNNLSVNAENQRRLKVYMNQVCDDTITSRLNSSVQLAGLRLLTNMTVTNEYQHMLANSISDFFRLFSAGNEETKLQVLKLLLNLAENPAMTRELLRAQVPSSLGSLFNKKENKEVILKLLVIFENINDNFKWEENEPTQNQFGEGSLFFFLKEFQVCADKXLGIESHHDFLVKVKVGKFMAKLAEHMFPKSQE

T2: GAL4 transactivating domain fusion of the central region of human hnRNPL (amino acids 116 to 464), brain … (human, UniProt P14866 147-495, limits assumed)
T2 construct: Two-hybrid prey isolated in the screen; also called central portion of hnRNPL
T2 sequence: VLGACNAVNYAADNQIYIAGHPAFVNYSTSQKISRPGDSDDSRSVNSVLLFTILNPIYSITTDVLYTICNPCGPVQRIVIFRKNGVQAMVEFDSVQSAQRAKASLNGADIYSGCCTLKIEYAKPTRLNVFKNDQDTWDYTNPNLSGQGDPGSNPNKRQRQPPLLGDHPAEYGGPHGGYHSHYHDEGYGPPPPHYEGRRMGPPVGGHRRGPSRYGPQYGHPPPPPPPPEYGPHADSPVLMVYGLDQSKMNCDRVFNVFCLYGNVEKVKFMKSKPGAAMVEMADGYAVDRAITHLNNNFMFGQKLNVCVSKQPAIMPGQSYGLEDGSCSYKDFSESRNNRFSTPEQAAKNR

B1: LexA fusion of the PTB1 domain of the human FE65 protein (amino acids 395 to 543), expressed from pLex-FE65PTB1 (other)
chain: PPRNTNPGIKCFAVRSLGWVEMTEEELAPGRSSVAVNNCIRQLSYHKNNLHDPMSGGWGEGKDLLLQLEDETLKLVEPQSQALLHAQPIISIRVWGVGRDSGRDFAYVARDKLTQMLKCHVFRCEAPAKNIATSLHEICSKIMAERRNA
notes: Two-hybrid bait expressed in yeast strain L40; PTB1 fragment cloned between XmaI and SalI downstream of LexA; also called PTB1 domain of FE65; not shown: LexA protein encoded by vector pLex9 (pBTM116); N-terminal fusion partner
B2: GAL4 transactivating domain fusion of the cytoplasmic domain of the APP protein, expressed from pGAD-App (other, UniProt P05067 723-770, looked up, not shown: large carriers)
chain: LKKKQYTSIHHGVVEVDAAVTPEERHLSKMQQNGYENPTYKFFEQMQN
notes: domain: cytoplasmic domain; Control prey; also called C-terminal domain of the APP

Tests used:
Assay in all cases: yeast two-hybrid (LexA bait, GAL4 AD prey), beta-galactosidase filter assay
[1] = molecular target: T1, GAL4 transactivating domain fusion of …
[2] = molecular target: T2, GAL4 transactivating domain fusion of …
[3] = molecular target: B1

Row | binding result [1] | binding result [2] | binding result [3] | Binder
1 | binds | binds |  | B1
2 |  |  | no binding | B2
